Laboratory results published in patent US20110250213A1 (JN BIOSCIENCES, published 2011).

T1: mouse CD122 (mouse, UniProt P16297 27-240, limits assumed)
T1 sequence (looked up): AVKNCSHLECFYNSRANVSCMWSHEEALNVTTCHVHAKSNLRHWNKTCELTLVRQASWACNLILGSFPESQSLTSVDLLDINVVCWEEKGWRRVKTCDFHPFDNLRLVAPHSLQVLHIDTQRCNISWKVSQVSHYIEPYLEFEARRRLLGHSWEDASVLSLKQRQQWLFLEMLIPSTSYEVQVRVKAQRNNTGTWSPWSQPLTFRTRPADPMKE


Tests used:
human CD122 (human) = human CD122 (human) (UniProt P14784); assay: cell-based or functional assay
mouse CD122 = target: T1, mouse CD122; assay: assay not specified

human CD122 (human), sequence (P14784 27-551): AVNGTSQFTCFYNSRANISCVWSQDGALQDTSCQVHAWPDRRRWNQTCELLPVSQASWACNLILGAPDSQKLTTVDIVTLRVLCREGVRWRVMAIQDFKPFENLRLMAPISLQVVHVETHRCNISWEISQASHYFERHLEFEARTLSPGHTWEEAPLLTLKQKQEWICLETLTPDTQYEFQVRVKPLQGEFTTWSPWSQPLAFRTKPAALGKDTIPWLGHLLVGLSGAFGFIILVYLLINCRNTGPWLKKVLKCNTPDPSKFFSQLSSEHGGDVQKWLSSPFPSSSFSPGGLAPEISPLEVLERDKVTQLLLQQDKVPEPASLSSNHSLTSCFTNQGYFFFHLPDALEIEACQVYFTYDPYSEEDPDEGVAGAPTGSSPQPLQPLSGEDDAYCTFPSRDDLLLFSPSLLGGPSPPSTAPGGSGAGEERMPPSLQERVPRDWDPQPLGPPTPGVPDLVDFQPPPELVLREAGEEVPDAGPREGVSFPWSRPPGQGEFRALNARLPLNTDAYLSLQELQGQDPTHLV

Row | antibody concentration required for 50% inhibition of proliferation mediated by trans-presentation of IL-15 to TF-1β cells (human CD122 (human)) | binding result (mouse CD122) | Molecule
1 | 10 µg/mL |  | HuMik-β1 (antibody)
2 |  | no binding | ABC2 (antibody, mouse IgG1, V domains shown, Mouse IgG1/kappa purified from hybridoma; also called mouse anti-human CD122 monoclonal antibody ABC2) VH: EVKLVESGGGLVQPGGSLRLSCATSGFTFSDFYMEWVRQPPGKRLEWIAASRNKANDYTTEYSASVKGRFIVSRDTSQSILYLQMNALRAEDTAIYYCARSYYRYDGMDYWGQGTSVTVSS VL: QVVLTQSPVIMSASPGEKVTMTCSAISSVSYMYWYQQKPGSSPRLLIYDTSNLVSGVPVRFSGSGSGTSYSLTISRMEAEDAATYYCQQWNTYPYTFGGGTKLEIK
3 |  | no binding | ABC101 (antibody, mouse IgG2b, V domains shown, Mouse IgG2b/kappa purified from hybridoma; also called mouse anti-human CD122 monoclonal antibody ABC101) VH: DVQLQESGPGLVKPSQTVSLTCTVTGYSITNDNHWWNWIRQVSGSKLEWMGYIDSSGSSDNNPSLKSQISITRDTSKNQLFLQLNSVTIEDIGTYYCARGGGRDYYGMDYWGQGTSVTVSS VL: DIVLTQSPASLAVSLGQRATISCRASQSVSTSSYSYVHWYQQKPGQPPKLLIKYASNLESGVPARFSGSGSGTDFTLNIHPVEEEDTATYYCQHSWDIPFTFGGGTKLEIK
